Columns and labels:
[1] = Screening of FFA-insensitive probes for response to UCB:BSA complexes (ΔI/Io); type: binding; conditions: fractional change in fluorescence intensity
Procedure: A probe for unbound unconjugated bilirubin (UCBu) was developed and used to measure concentrations of UCBu in plasma spiked with a defined quantity of unconjugated bilirubin (UCB). Using 384-well plates, 335 mutant probes that were insensitive to FFA were screened for their response to UCB:BSA complexes at UCB:BSA ratios of 1:1 and 1:2 in aqueous buffer. All probes were prepared from rI-FABP-L72A with 1 to 5 mutations. Screening was conducted by comparing the fractional change in fluorescence intensity (ΔI/Io, where ΔI is the difference in probe intensity in the presence and absence of UCB and Io is the intensity in the absence of UCB) for the probes with that for ADIFAB2. This value was calculated for two emission wavelengths: 440 and 500 nm. […] The emitted fluorescence of these probes is quenched by binding of UCB.

[2] = Probe calibration: binding affinities for fatty acids
Procedure: In a preferred embodiment, the template FABP is recombinant rat intestinal fatty acid binding protein (rI-FABP). Derivatization with acrylodan is performed using known methods substantially as previously described (U.S. Pat. No. 5,470,714 & Richieri, G. V, et al., J. Biol. Chem., (1992) 276: 23495-23501), and the resulting probe (ADIFAB) is commercially available (FFA Sciences LLC, San Diego, Calif.). […] The wavelength emitted by the fluorescently-labeled FABP depends upon the label and protein used. In an alternate preferred embodiment, the template protein is rI-FABP that has Ala substituted for Leu at position 72 (rI-FABP-L72A) with the resulting probe named ADIFAB2. […] Experiments typically involve measuring the fluorescence response within both emission maxima or at wavelengths for which the effect of interfering molecules such as hemoglobin can be eliminated as described in (U.S. application Ser. No. 10/670,958 and PCT/US2004/030521) and the calculation of the ratio ‘R’ of the two fluorescence intensities. The baseline value for this ratio, measured in the absence of analyte, is designated R0.
For each probe considered to have a useful phenotype, the sequence is determined, milligram quantities of the probe are prepared and the probe is calibrated. […] Spectra of probes were analyzed for true ratio behavior. […]

B1: ADIFAB2: rI-FABP with Ala substituted for Leu at position 72 (rI-FABP-L72A), derivatized with acrylodan; reference probe (protein, UniProt P02693 2-132, looked up, variant L72A)
Fatty acid-binding protein, …: AFDGTWKVDRNENYEKFMEKMGINVVKRKLGAHDNLKLTITQEGNKFTVKESSNFRNIDVVFELGVDFAYSAADGTELTGTWTMEGNKLVGKFKRVDNGKELIAVREISGNELIQTYTYEGVEAKRIFKKE
modifications: acrylodan label
- ΔI/Io 1:1 UCB:BSA 440 nm ([1]; UCB:BSA 1:1, emission 440 nm): −0.40
- ΔI/Io 1:1 UCB:BSA 500 nm ([1]; UCB:BSA 1:1, emission 500 nm): −0.34
- ΔI/Io 1:2 UCB:BSA 440 nm ([1]; UCB:BSA 1:2, emission 440 nm): −0.19
- ΔI/Io 1:2 UCB:BSA 500 nm ([1]; UCB:BSA 1:2, emission 500 nm): −0.16
- binding affinities relative to ADIFAB [2]: about 10 fold
